Measured values published in paper PMC12609908.

Biological target: T1, CutR (Mycobacterium sp. strain JC1, UniProt D5G1X9 1-320)
T1 sequence: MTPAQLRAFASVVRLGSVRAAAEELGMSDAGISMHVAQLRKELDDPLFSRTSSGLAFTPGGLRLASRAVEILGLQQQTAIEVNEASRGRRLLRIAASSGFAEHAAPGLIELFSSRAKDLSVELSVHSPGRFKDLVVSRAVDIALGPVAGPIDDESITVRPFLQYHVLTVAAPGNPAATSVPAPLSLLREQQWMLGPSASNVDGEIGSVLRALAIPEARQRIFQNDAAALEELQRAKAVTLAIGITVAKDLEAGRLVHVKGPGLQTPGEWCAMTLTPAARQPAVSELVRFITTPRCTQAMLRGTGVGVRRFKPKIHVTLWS
Assay: EMSA; no CO; 50 mM Tris-HCl pH 8.0, 100 mM NaCl, 40% glycerol, 5 mM DTT, 2 mM EDTA, 4 °C 1 h; 10% native PAGE in 0.5x TBE at 4 °C
Details: protein: recombinant; tags: C-terminal His6; chain copies: 2; label: 5'-biotin (forward strand); blunt

B1: IR2 (29 bp) (dsDNA)
DNA 1: GGGCCAGTTAAGCGATTCCTTAAGGGGGG
DNA 2: CCCCCCTTAAGGAATCGCTTAACTGGCCC
binding result: binds
